These results are taken from US20090004190A1, “Rage Fusion Proteins And Methods Of Use” (priority 2006, published 2009).

The target in the test is Fc receptor on THP-1 cells. Briefly: cell-based or functional assay.

As for “human IgG1 (heat aggregated, coated on wells) (antibody)”, the TNF secreted by THP-1 cells in wells coated with 10 µg/well heat aggregated protein (ELISA, 24 h) was over 40 ng/well.
